Experimental data taken from the supplement of paper PMC9112550, “Optimization of the antimicrobial peptide Bac7 by deep mutational scanning” (BMC Biology, 2022).

What follows are sequences tested on Escherichia coli TOP10 (assay: shrunken log2 fold change of peptide-encoding DNA abundance (4.5 h post-induction vs induction); higher = less antimicrobial activity (less host growth inhibition)). Conditions: time post-induction: 4.5 h; library: site-saturation at positions 5, 18, 19, 20.
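Note: peptides expressed intracellularly from a pBAD plasmid library in pooled LB shake-flask culture, induced with 0.3% L-arabinose, DNA abundance read by NGS, three biological replicates, DESeq2 with apeglm shrinkage.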

Row | Sequence | shrunken log2 fold change
1 | RRIRERPPRLPRPRPRPFYRPRP | -0.111
2 | RRIRERPPRLPRPRPRPGCVPRP | 0.118
3 | RRIRERPPRLPRPRPRPGCYPRP | -0.151
4 | RRIRERPPRLPRPRPRPGEDPRP | -0.0649
5 | RRIRERPPRLPRPRPRPGGSPRP | 0.154
6 | RRIRERPPRLPRPRPRPGHIPRP | -0.0236
7 | RRIRERPPRLPRPRPRPGHTPRP | -0.0164
8 | RRIRERPPRLPRPRPRPGHYPRP | -0.121
9 | RRIRERPPRLPRPRPRPGIHPRP | -0.502
10 | RRIRERPPRLPRPRPRPGIWPRP | 0.139
11 | RRIRERPPRLPRPRPRPGMVPRP | 0.217
12 | RRIRERPPRLPRPRPRPGNCPRP | 0.13
13 | RRIRERPPRLPRPRPRPGPMPRP | 0.224
14 | RRIRERPPRLPRPRPRPGRYPRP | -0.443
15 | RRIRERPPRLPRPRPRPGSCPRP | -0.0703
16 | RRIRERPPRLPRPRPRPGSGPRP | 0.101
17 | RRIRERPPRLPRPRPRPGSSPRP | -0.331
18 | RRIRERPPRLPRPRPRPGSTPRP | -0.401
19 | RRIRERPPRLPRPRPRPGTCPRP | 0.0777
20 | RRIRERPPRLPRPRPRPGTHPRP | -0.394
21 | RRIRERPPRLPRPRPRPGVSPRP | -0.00674
22 | RRIRERPPRLPRPRPRPGYFPRP | -0.0348
23 | RRIRERPPRLPRPRPRPGYQPRP | -0.00905
24 | RRIRERPPRLPRPRPRPHEKPRP | -0.00663
25 | RRIRERPPRLPRPRPRPHFKPRP | -0.342

Row | Sequence | shrunken log2 fold change
26 | RRIRERPPRLPRPRPRPHHFPRP | -0.0117
27 | RRIRERPPRLPRPRPRPHHVPRP | 0.00979
28 | RRIRERPPRLPRPRPRPHIDPRP | -0.34
29 | RRIRERPPRLPRPRPRPHILPRP | -0.245
30 | RRIRERPPRLPRPRPRPHISPRP | -0.3
31 | RRIRERPPRLPRPRPRPHKCPRP | 0.0924
32 | RRIRERPPRLPRPRPRPHLTPRP | 0.0373
33 | RRIRERPPRLPRPRPRPHPCPRP | -0.0414
34 | RRIRERPPRLPRPRPRPHPQPRP | -0.103
35 | RRIRERPPRLPRPRPRPHPSPRP | -0.222
36 | RRIRERPPRLPRPRPRPHQLPRP | 0.0377
37 | RRIRERPPRLPRPRPRPHQMPRP | -0.0399
38 | RRIRERPPRLPRPRPRPHSDPRP | -0.0192
39 | RRIRERPPRLPRPRPRPHSEPRP | -0.148
40 | RRIRERPPRLPRPRPRPHSFPRP | 0.0142
41 | RRIRERPPRLPRPRPRPHSGPRP | -0.365
42 | RRIRERPPRLPRPRPRPHSIPRP | -0.0535
43 | RRIRERPPRLPRPRPRPHSKPRP | -0.313
44 | RRIRERPPRLPRPRPRPHSNPRP | -0.255
45 | RRIRERPPRLPRPRPRPHTEPRP | -0.239
46 | RRIRERPPRLPRPRPRPHVAPRP | 0.0131
47 | RRIRERPPRLPRPRPRPHVDPRP | -0.00242
48 | RRIRERPPRLPRPRPRPHWMPRP | -0.157
49 | RRIRERPPRLPRPRPRPIALPRP | -0.0132
50 | RRIRERPPRLPRPRPRPICEPRP | 0.0105

Row | Sequence | shrunken log2 fold change
51 | RRIRERPPRLPRPRPRPIDVPRP | -0.0231
52 | RRIRERPPRLPRPRPRPIDWPRP | -0.0206
53 | RRIRERPPRLPRPRPRPIECPRP | -0.339
54 | RRIRERPPRLPRPRPRPIEHPRP | -0.00973
55 | RRIRERPPRLPRPRPRPIFCPRP | 0.0456
56 | RRIRERPPRLPRPRPRPIFKPRP | 0.138
57 | RRIRERPPRLPRPRPRPIFRPRP | -0.00741
58 | RRIRERPPRLPRPRPRPIFWPRP | 0.167
59 | RRIRERPPRLPRPRPRPIGPPRP | -0.138
60 | RRIRERPPRLPRPRPRPIGWPRP | 0.0874
61 | RRIRERPPRLPRPRPRPIHPPRP | -0.239
62 | RRIRERPPRLPRPRPRPIHWPRP | -0.0429
63 | RRIRERPPRLPRPRPRPIIGPRP | -0.249
64 | RRIRERPPRLPRPRPRPIIKPRP | -0.703
65 | RRIRERPPRLPRPRPRPIKPPRP | -0.363
66 | RRIRERPPRLPRPRPRPIKQPRP | -0.00681
67 | RRIRERPPRLPRPRPRPIKSPRP | -0.611
68 | RRIRERPPRLPRPRPRPINGPRP | 0.0683
69 | RRIRERPPRLPRPRPRPINNPRP | -0.944
70 | RRIRERPPRLPRPRPRPINRPRP | -0.017
71 | RRIRERPPRLPRPRPRPIPVPRP | -0.217
72 | RRIRERPPRLPRPRPRPIPWPRP | -0.345
73 | RRIRERPPRLPRPRPRPIQVPRP | -0.0549
74 | RRIRERPPRLPRPRPRPISDPRP | 0.00346
75 | RRIRERPPRLPRPRPRPISLPRP | -0.28
